Test results from patent publication US9132169B2, “Methods and compositions for modulating adipocyte function” (Joslin Diabetes Center, Inc., priority 2003, dated 2015).
Entries after “also recorded” stand apart in the source; their conditions may differ.

Legend:
WT brown preadipocytes = experiment: Brown adipocyte differentiation, Oil Red O staining; format: cell-based, mouse; details: for differentiation of brown preadipocytes, agent alone: brown preadipocyte cell line, single agent; for lipid accumulation as monitored by Oil Red O staining (brown adipocyte differentiation): 33 nM BMP, 10 days, absence of induction cocktail; for differentiation of brown preadipocytes, BMP plus insulin and T3: combination of BMP-6 or -7 plus insulin and T3
Procedure: (§1) Preadipocytes were grown to confluence (day 0) in differentiation medium (Dulbecco's modified […] medium containing 10% Fetal Bovine Serum supplemented with 20 nM insulin and 1 nM T3). Adipocyte differentiation was induced by treating confluent cells for 48 hours in differentiation medium further supplemented with 0.5 mM isobutylmethylxanthine (IBMX), 0.5 mM dexamethazone, and 0.125 mM indomethacin. After this induction period (day 2), cells were placed back to differentiation medium, which was then changed every second day.
(§2) Dishes were washed twice with phosphate-buffered saline and fixed with 10% buffered formalin for at least 1 hour at room temperature. Cells were then stained for 2 hours at room temperature with a filtered oil red 0 solution (0.5% oil red 0 in isopropyl alcohol), washed twice with distilled water, and visualized.
Brown fat precursor cells were isolated from intrascapular brown fat of newborn mice and immortalized by SV40 T antigen.
To begin to explore the role of BMPs on brown adipogenesis, the effect of six different BMPs on differentiation of WT brown preadipocytes was examined. In the absence of induction cocktail, 33 nM of BMPs were added to the normal culture medium and fresh medium was changed every 2 days.

BMP-6 gene expression = BMP-6 gene expression in wildtype brown adipocytes; format: cell-based, mouse; details: acute treatment
[1] = system: Pref-1 (preadipocyte factor-1); experiment: Pref-1 expression by quantitative RT-PCR in IRS-1 KO cells; format: cell-based, mouse; details: 30 nM over six days
Text: IRS-1 signalling plays an important role in insulin resistance, which is a hallmark of Type II diabetes.

[2] = system: FAS (fatty acid synthase); experiment: FAS protein expression in MEF whole cell lysates; format: cell-based, mouse; details: MEF cells, presence of induction cocktail or TZD
Procedure: (§3) MEF cells were grown in culture media containing 1 μM of rosiglitazone, BMPs, or a combination of both for 10 days. Oil Red O staining was performed at the end of differentiation to monitor the degree of adipogenesis. […] Whole cell lysates were isolated from these cells to examine the expression of the adipogenic marker FAS (fatty acid synthase).

[3] = system: mouse embryonic fibroblasts (MEFs); experiment: Adipogenesis in mouse embryonic fibroblasts, Oil Red O staining; format: cell-based; details: MEF cells, 1 μM rosiglitazone plus BMP, 10 days
Procedure: To examine whether BMPs play a role in determining the fate of pluripotent stem cells toward brown adipocyte lineage, murine pluripotent cells, the effect of BMPs on adipogenesis was evaluated in mouse embryonic fibroblasts (MEFs), which were generated lab using the 3T3 protocol of Todaro and Green (J. Cell. Biol. 17:299-313 (1963)). The MEF cells were maintained in Dulbecco's Modified Eagle Medium (DMEM) supplemented with 10% FBS.
as §3

[4] = system: white preadipocytes (3T3-L1 cells); experiment: White preadipocyte differentiation, Oil Red O staining; format: cell-based; details: for insulin- and insulin/T3-induced differentiation of 3T3-L1 cells: BMP alone or combined with insulin
Procedure: as §1, §2

p38 MAPK = experiment: BMP signaling in WT brown preadipocytes, phospho-specific antibody Western blot; format: cell-based, mouse; details: WT brown preadipocytes treated with recombinant BMP-6, phospho-specific antibodies (Thr180/Tyr182)
Procedure: (§4) Brown fat precursor cells were isolated from intrascapular brown fat of newborn mice and immortalized by SV40 T antigen. […] Following differentiation with an induction cocktail of 20 nM insulin, 1 nM thyroid hormone [3,5,3′-triiodothyronine (T3)], 0.5 μM dexamethazone, 0.125 mM indomethacin, and 0.5 mM isobutylmethylxanthine, pre-adipocytes became smaller, rounded up, accumulated fat, and the cytoplasm/nuclear-ratio increased dramatically. Once fully differentiated, multi-locular fat droplets could be detected both microscopically and by Oil Red-O staining. Expression of UCP-1 was detected at basal state and upon β-adrenergic stimulation, confirming the features of brown adipocytes (methods described in Klein et al., J. Biol. Chem. 274:34795-34802 (1999)).
(§5) To see if BMPs were able to transmit signals into these cells, the WT brown preadipocytes were treated with recombinant BMP-6 (R&D Systems).

Smad 1/5/8 = experiment: as above; format: cell-based, mouse
Procedure: as §4, §5

[5] = system: IRS-1 KO brown preadipocytes; experiment: Differentiation of IRS-1 knockout brown preadipocytes; format: cell-based, mouse
Procedure: as §1, §2
These factors utilize a complex signaling pathway to exert their pleiotropic biological effects involving activation of their respective cell surface receptors and phosphorylation of several intracellular insulin/IGF-1 receptor substrates (IRS). To determine the role of this signaling pathway in the regulation of brown adipogenesis and metabolism, brown preadipocyte cell lines were generated from wild-type (WT) and different IRS knockout (KO) mice (Fasshauer et al., Mol Cell Biol 21:319-329 (2001); Tseng et al., J Biol. Chem. 277:31601-31611 (2002); Tseng et al., Mol Cell Biol 24:1918-1929 (2004)). These cells were studied in both their fibroblastic and differentiated states. […] This occurred not only at the levels of lipid accumulation, but also involved blockade of the normal pattern of progression in the transcriptional regulators of adipogenesis, such as C/EBPα and PPARγ, as well as thermogenic marker UCP-1.
The differentiation inductive effect of BMP-6 is more easily seen in brown adipocytes from IRS-1 knockout animals, which are known to have a defect in adipocyte differentiation. […]

PGC-1a = PGC-1a mRNA expression by quantitative RT-PCR in brown preadipocytes; format: cell-based, mouse
Text: (§6) PGC-1∀ and UCP-1 are two decisive cellular markers of brown adipocytes.

PPARγ = PPARγ mRNA and protein expression in brown preadipocytes; format: cell-based, mouse
Text: as §6

UCP-1 = UCP-1 protein expression by Western blot in brown preadipocytes; format: cell-based, mouse; details: combination of 20 nM insulin, 1 nM T3 and 8.3 nM BMP-7
Text: as §6

UCP-1 promoter = experiment: UCP-1 expression reporter gene (UCP-1 promoter linked to firefly luciferase); format: cell-based; details: 10 uM TZD and retinoic acid, presence of PPARγ and RxRa
Text: Adaptive thermogenesis is an important component of energy homeostasis and a metabolic defense against obesity.

[6] = standard induction conditions (W induction)

## N[C@@H](Cc1cc(I)c(Oc2ccc(O)c(I)c2)c(I)c1)C(=O)O [T3, 3,5,3′-triiodothyronine, reference compound]
WT brown preadipocytes
  differentiation of brown preadipocytes, agent alone: pro-differentiative effects

## IGF-1: known inducer of adipocyte differentiation
BMP-6 gene expression
  BMP-6 gene expression: acutely induce

## insulin: known inducer of adipocyte differentiation
BMP-6 gene expression
  BMP-6 gene expression: acutely induce
WT brown preadipocytes
  differentiation of brown preadipocytes, agent alone: pro-differentiative effects

B1: BMP-5: bone morphogenetic protein 5, added at 33 nM to culture medium (protein, listed as Homo sapiens)
chain: NQNRNKSSSHQDSSRMSSVGDYNTSEQKQACKKHELYVSFRDLGWQDWIIAPEGYAAFYCDGECSFPLNAHMNATNHAIVQTLVHLMFPDHVPKPCCAPTKLNAISVLYFDDSSNVILKKYRNMVVRSCGCH
WT brown preadipocytes
  lipid accumulation as monitored by Oil Red O staining (brown adipocyte differentiation): weaker effect

B2: BMP-6: Recombinant human BMP-6 (R & D Systems, MN) (protein, listed as Homo sapiens)
chain: RSASSRRRQQSRNRSTQSQDVARVSSASDYNSSELKTACRKHELYVSFQDLGWQDWIIAPKGYAANYCDGECSFPLNAHMNATNHAIVQTLVHLMNPEYVPKPCCAPTKLNAISVLYFDDNSNVILKKYRNMVVRACGCH
[1]
  Pref-1 expression: down-regulation
[2]
  FAS protein expression: induced FAS protein expression
[3]
  TZD effects on adipocyte differentiation (Oil Red O): potentiated the TZD effects
[4]; 33 nM, 8 days
  differentiation of white preadipocytes: did not induce differentiation
[4]
  insulin- and insulin/T3-induced differentiation of 3T3-L1 cells: Little to no effect
[4]; W/O induction
  WAT differentiation (3T3-L1), without induction: no change
[4]; [6]
  differentiation of 3T3-L1 cells, with induction: inhibited the level of differentiation
WT brown preadipocytes
  morphology of wild-type brown pre-adipocytes: cause changes in the morphology
  lipid accumulation as monitored by Oil Red O staining (brown adipocyte differentiation): substantial increase in lipid accumulation
  differentiation of brown preadipocytes, agent alone: pro-differentiative effects
  differentiation of brown preadipocytes, BMP plus insulin and T3: strongly enhanced
WT brown preadipocytes; absence of standard induction conditions (W/O induction)
  differentiation of wildtype brown preadipocytes, without induction: increased the level of brown adipocyte differentiation
WT brown preadipocytes; [6]
  differentiation of wildtype brown preadipocytes, with induction: enhance differentiation; also recorded: enhanced the level of differentiation
WT brown preadipocytes; wild-type brown adipocytes, presence of induction cocktail
  acceleration of differentiation (Oil Red O staining): 1 to 2 days
p38 MAPK
  activation of p38 MAPK: quickly activated
p38 MAPK; listed as BMP6
  activation of p38 MAPK: activation
Smad 1/5/8; WT brown preadipocytes treated with recombinant BMP-6
  activation of Smad 1/5/8: quickly activated
Smad 1/5/8; WT brown preadipocytes treated with recombinant BMP-6, listed as BMP6
  activation of Smad 1/5/8: activation
[5]; 30 nM over six days
  differentiation of IRS-1 KO brown preadipocytes: restores the defects in differentiation
[5]; W/O induction
  BAT differentiation of IRS-1 knockout preadipocytes, without induction: no change
[5]; [6]
  differentiation of IRS-1 knockout brown preadipocytes, with induction: rescue, at least partially; also recorded: enhanced the level of differentiation
PGC-1a; Q-RT-PCR, day 3
  PGC-1a mRNA expression at day 3: quickly induced
PGC-1a; Q-RT-PCR, to day 9
  PGC-1a mRNA expression as differentiation progressed to day 9: further increased
PGC-1a; addition of recombinant BMP-6
  expression of PGC-1 during spontaneous differentiation: induced expression
PGC-1a; quantitative RT-PCR, FIG. 3
  PGC-1a mRNA expression at 0, 3, and 6 days after treatment: increase
PPARγ; BMP-6 treatment, course of differentiation (0, 3, 6 days), Western blot
  PPARγ protein expression: markedly induced; also recorded: approximately maximal by day 3; also recorded: increase
PPARγ; BMP-6 treatment, course of differentiation (0, 3, 6 days), quantitative RT-PCR
  PPARγ mRNA expression: markedly induced; also recorded: approximately maximal by day 3; also recorded: increase
PPARγ; addition of recombinant BMP-6
  expression of PPARγ during spontaneous differentiation: induced expression

B3: BMP-7: bone morphogenetic protein 7 (protein, listed as Homo sapiens)
chain: STGSKQRSQNRSKTPKNQEALRMANVAENSSSDQRQACKKHELYVSFRDLGWQDWIIAPEGYAAYYCEGECAFPLNSYMNATNHAIVQTLVHFINPETVPKPCCAPTQLNAISVLYFDDSSNVILKKYRNMVVRACGCH
UCP-1
  UCP-1 expression, combination treatments: strongest induction
UCP-1 promoter
  TZD/RA-induced stimulation of UCP-1 promoter activity: enhanced
[2]
  FAS protein expression: induced FAS protein expression
[3]
  TZD effects on adipocyte differentiation (Oil Red O): potentiated the TZD effects
[4]
  insulin- and insulin/T3-induced differentiation of 3T3-L1 cells: Little to no effect
WT brown preadipocytes
  lipid accumulation as monitored by Oil Red O staining (brown adipocyte differentiation): substantial increase in lipid accumulation
  differentiation of brown preadipocytes, agent alone: pro-differentiative effects
  differentiation of brown preadipocytes, BMP plus insulin and T3: strongly enhanced
WT brown preadipocytes; combination with insulin
  differentiation of brown preadipocytes, insulin plus B7: strong combination effects
PPARγ; combination of 20 nM insulin, 1 nM T3 and 8.3 nM BMP-7, Western blot
  PPARγ expression, combination treatments: strongest induction

B4: BMP-3: bone morphogenetic protein 3, added at 33 nM to culture medium (protein, UniProt P12645 363-472, looked up)
Bone morphogenetic protein 3: QWIEPRNCARRYLKVDFADIGWSEWIISPKSFDAYYCSGACQFPMPKSLKPSNHATIQSIVRAVGVVPGIPEPCCVPEKMSSLSILFFDENKNVVLKVYPNMTVESCACR
WT brown preadipocytes
  lipid accumulation as monitored by Oil Red O staining (brown adipocyte differentiation): no effect

B5: BMP-4: bone morphogenetic protein 4, added at 33 nM to culture medium (protein, listed as Homo sapiens)
chain: SPKHHSQRARKKNKNCRRHSLYVDFSDVGWNDWIVAPPGYQAFYCHGDCPFPLADHLNSTNHAIVQTLVNSVNSSIPKACCVPTELSAISMLYLDEYDKVVLKNYQEMVVEGCGCR
WT brown preadipocytes
  lipid accumulation as monitored by Oil Red O staining (brown adipocyte differentiation): substantial increase in lipid accumulation
